Measured values published in the supplement of paper PMC10598134.
± gives the standard deviation.

Assay: collision cross section of modified peptide (TIMS, N2, iRT-aligned); higher = larger / more extended gas-phase ion
Method: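 1/K0 was aligned run-wise to spiked iRT peptides and converted to CCS in N2 (Mason-Schamp). Values are the mean of 1-3 technical replicates for the most abundant feature at each charge state.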

[1] = charge state: 2, modification: Malonyl
[2] = charge state: 3, modification: Malonyl
[3] = charge state: 2, modification: Methyl (K)
[4] = charge state: 3, modification: Methyl (K)
[5] = charge state: 2, modification: Propionyl
[6] = charge state: 2, modification: Succinyl
[7] = charge state: 3, modification: Succinyl
[8] = charge state: 2, modification: Trimethyl (K)
[9] = charge state: 3, modification: Trimethyl (K)
[10] = charge state: 2, modification: hydroxyisobutyryl
[11] = charge state: 3, modification: hydroxyisobutyryl
[12] = charge state: 2, modification: Acetyl (K)
[13] = charge state: 3, modification: Acetyl (K)
[14] = charge state: 2, modification: Biotin
[15] = charge state: 3, modification: Biotin
[16] = charge state: 2, modification: Butyryl
[17] = charge state: 3, modification: Butyryl
[18] = charge state: 2, modification: Crotonyl
[19] = charge state: 3, modification: Crotonyl
[20] = charge state: 2, modification: Dimethyl (K)
[21] = charge state: 3, modification: Dimethyl (K)
[22] = charge state: 2, modification: Formyl
[23] = charge state: 2, modification: Glutarylation
[24] = charge state: 3, modification: Glutarylation
[25] = charge state: 2, modification: GlyGly (K)
[26] = charge state: 3, modification: GlyGly (K)

For “DASTLQSQKAEGTGDAK [_DASTLQSQK(Malonyl)AEGTGDAK_]”, the collision cross section [1] was 438.73 ± 1.8 Å² and the collision cross section [2] was 490.61 ± 1.6 Å².

Work on “DASTLQSQKAEGTGDAK [_DASTLQSQK(Methyl (K))AEGTGDAK_]” yielded a collision cross section [3] of 440.39 ± 1.8 Å² and a collision cross section [4] of 487.49 ± 2.4 Å².

“DASTLQSQKAEGTGDAK [_DASTLQSQK(Propionyl)AEGTGDAK_]” showed a collision cross section [5] of 434.77 ± 2.9 Å².

“DASTLQSQKAEGTGDAK [_DASTLQSQK(Succinyl)AEGTGDAK_]” showed a collision cross section [6] of 437.2 ± 0.35 Å² and a collision cross section [7] of 509.05 ± 1.6 Å².

“DASTLQSQKAEGTGDAK [_DASTLQSQK(Trimethyl (K))AEGTGDAK_]” showed a collision cross section [8] of 445.31 ± 1 Å² and a collision cross section [9] of 482.47 ± 1.6 Å².

“DASTLQSQKAEGTGDAK [_DASTLQSQK(hydroxyisobutyryl)AEGTGDAK_]” gave a collision cross section [10] of 441.13 ± 0.33 Å² and a collision cross section [11] of 514.99 ± 2.1 Å².

“DDIIENAPTTHTEEYSGEEK [_DDIIENAPTTHTEEY(Nitro (Y))SGEEK_]” gave a collision cross section (charge state: 3, modification: Nitro (Y)) of 553.72 ± 2.2 Å².

“DDSFLGKLGGTLAR [_DDSFLGK(Acetyl (K))LGGTLAR_]” showed a collision cross section [12] of 410.51 ± 1.7 Å² and a collision cross section [13] of 489.73 Å².

“DDSFLGKLGGTLAR [_DDSFLGK(Biotin)LGGTLAR_]” showed a collision cross section [14] of 427.7 ± 0.62 Å² and a collision cross section [15] of 505.13 Å².

For “DDSFLGKLGGTLAR [_DDSFLGK(Butyryl)LGGTLAR_]”, the collision cross section [16] was 417.41 ± 0.39 Å² and the collision cross section [17] was 492.3 ± 2.4 Å².

Work on “DDSFLGKLGGTLAR [_DDSFLGK(Crotonyl)LGGTLAR_]” yielded a collision cross section [18] of 415.37 ± 0.28 Å² and a collision cross section [19] of 492.69 Å².

“DDSFLGKLGGTLAR [_DDSFLGK(Dimethyl (K))LGGTLAR_]” gave a collision cross section [20] of 416.68 ± 0.75 Å² and a collision cross section [21] of 473.5 ± 1.2 Å².

Work on “DDSFLGKLGGTLAR [_DDSFLGK(Formyl)LGGTLAR_]” yielded a collision cross section [22] of 408.49 ± 1.1 Å².

With “DDSFLGKLGGTLAR [_DDSFLGK(Gluratylation)LGGTLAR_]” the collision cross section [23] was 415.27 ± 0.59 Å² and the collision cross section [24] was 485.15 Å².

Sequence “DDSFLGKLGGTLAR [_DDSFLGK(GlyGly (K))LGGTLAR_]” has a collision cross section [25] of 434.49 ± 0.96 Å² and a collision cross section [26] of 484.35 ± 1.9 Å².

“DDSFLGKLGGTLAR [_DDSFLGK(Malonyl)LGGTLAR_]” showed a collision cross section [1] of 411.31 ± 1 Å² and a collision cross section [2] of 489.57 ± 2.2 Å².

Work on “DDSFLGKLGGTLAR [_DDSFLGK(Methyl (K))LGGTLAR_]” yielded a collision cross section [3] of 408.16 ± 0.81 Å² and a collision cross section [4] of 476.22 ± 3.5 Å².

For “DDSFLGKLGGTLAR [_DDSFLGK(Succinyl)LGGTLAR_]”, the collision cross section [6] was 412.99 ± 0.37 Å² and the collision cross section [7] was 489.32 ± 3.3 Å².

“DDSFLGKLGGTLAR [_DDSFLGK(Trimethyl (K))LGGTLAR_]” gave a collision cross section [8] of 427.63 Å² and a collision cross section [9] of 472.67 ± 1.8 Å².

With “DDSFLGKLGGTLAR [_DDSFLGK(hydroxyisobutyryl)LGGTLAR_]” the collision cross section [10] was 418.74 ± 0.55 Å² and the collision cross section [11] was 495.38 ± 2.8 Å².

Work on DDSNLYINVK [_DDSNLY(Nitro (Y))INVK_] yielded a collision cross section (charge state: 2, modification: Nitro (Y)) of 367.46 ± 0.55 Å².

DDSNLYINVK [_DDSNLY(Phospho (Y))INVK_] showed a collision cross section (charge state: 2, modification: Phospho (Y)) of 368.08 ± 0.064 Å².

Work on “DESFLGKLGGTLAR [_DESFLGK(Acetyl (K))LGGTLAR_]” yielded a collision cross section [12] of 410.82 ± 1.1 Å² and a collision cross section [13] of 491.27 Å².

With “DESFLGKLGGTLAR [_DESFLGK(Biotin)LGGTLAR_]” the collision cross section [14] was 424.81 Å² and the collision cross section [15] was 506.47 Å².

Work on “DESFLGKLGGTLAR [_DESFLGK(Butyryl)LGGTLAR_]” yielded a collision cross section [16] of 417.73 ± 0.53 Å² and a collision cross section [17] of 494.35 ± 3.3 Å².

Sequence “DESFLGKLGGTLAR [_DESFLGK(Crotonyl)LGGTLAR_]” has a collision cross section [18] of 415.33 ± 0.28 Å² and a collision cross section [19] of 492.01 Å².

“DESFLGKLGGTLAR [_DESFLGK(Dimethyl (K))LGGTLAR_]” showed a collision cross section [20] of 418.8 ± 0.75 Å² and a collision cross section [21] of 466.85 ± 1.2 Å².

For “DESFLGKLGGTLAR [_DESFLGK(Formyl)LGGTLAR_]”, the collision cross section [22] was 408.46 ± 1.1 Å².

In the case of “DESFLGKLGGTLAR [_DESFLGK(Gluratylation)LGGTLAR_]”, the collision cross section [23] is reported as 418.47 ± 2.1 Å² and the collision cross section [24] is reported as 488.45 ± 2.4 Å².

Work on “DESFLGKLGGTLAR [_DESFLGK(GlyGly (K))LGGTLAR_]” yielded a collision cross section [25] of 437.68 ± 0.96 Å² and a collision cross section [26] of 486.51 ± 1.1 Å².

In the case of “DESFLGKLGGTLAR [_DESFLGK(Malonyl)LGGTLAR_]”, the collision cross section [1] is reported as 413.79 ± 1.2 Å² and the collision cross section [2] is reported as 487.95 Å².

Sequence “DESFLGKLGGTLAR [_DESFLGK(Methyl (K))LGGTLAR_]” has a collision cross section [3] of 408.12 ± 0.81 Å² and a collision cross section [4] of 471.83 ± 2.8 Å².

“DESFLGKLGGTLAR [_DESFLGK(Succinyl)LGGTLAR_]” gave a collision cross section [6] of 416.2 ± 0.36 Å² and a collision cross section [7] of 490.1 ± 2.1 Å².

Work on “DESFLGKLGGTLAR [_DESFLGK(Trimethyl (K))LGGTLAR_]” yielded a collision cross section [9] of 477.03 ± 0.84 Å².

With “DESFLGKLGGTLAR [_DESFLGK(hydroxyisobutyryl)LGGTLAR_]” the collision cross section [10] was 419.07 ± 0.83 Å² and the collision cross section [11] was 498.29 ± 2.3 Å².

For “DFAFYNPRLQGK [_DFAFYNPR(Citrullination (R))LQGK_]”, the collision cross section (charge state: 2, modification: Citrullination (R)) was 400.16 ± 0.22 Å² and the collision cross section (charge state: 3, modification: Citrullination (R)) was 473.76 Å².

Sequence “DFAFYNPRLQGK [_DFAFYNPR(Methyl (R))LQGK_]” has a collision cross section (charge state: 2, modification: Methyl (R)) of 413.14 ± 0.67 Å² and a collision cross section (charge state: 3, modification: Methyl (R)) of 469.16 ± 2.2 Å².

Sequence DFDTALKHYDK [_DFDTALK(Acetyl (K))HYDK_] has a collision cross section [12] of 401.2 ± 2 Å² and a collision cross section [13] of 463.37 ± 2.2 Å².

In the case of DFDTALKHYDK [_DFDTALK(Biotin)HYDK_], the collision cross section [14] is reported as 424.89 ± 0.23 Å² and the collision cross section [15] is reported as 488.66 Å².

In the case of DFDTALKHYDK [_DFDTALK(Butyryl)HYDK_], the collision cross section [16] is reported as 408.66 ± 0.23 Å² and the collision cross section [17] is reported as 465.65 ± 2.9 Å².

Sequence DFDTALKHYDK [_DFDTALK(Crotonyl)HYDK_] has a collision cross section [18] of 412.02 ± 2.4 Å² and a collision cross section [19] of 466.35 ± 1.9 Å².

For “DFDTALKHYDK [_DFDTALK(Dimethyl (K))HYDK_]”, the collision cross section [21] was 452.29 ± 1.2 Å².

In the case of DFDTALKHYDK [_DFDTALK(Formyl)HYDK_], the collision cross section [22] is reported as 397.93 ± 1.3 Å² and the collision cross section (charge state: 3, modification: Formyl) is reported as 457.98 ± 2.1 Å².

With “DFDTALKHYDK [_DFDTALK(Gluratylation)HYDK_]” the collision cross section [23] was 406.02 ± 0.63 Å² and the collision cross section [24] was 469.01 ± 1.7 Å².

In the case of DFDTALKHYDK [_DFDTALK(GlyGly (K))HYDK_], the collision cross section [25] is reported as 400.17 ± 0.77 Å² and the collision cross section [26] is reported as 467.02 ± 1.1 Å².

Work on DFDTALKHYDK [_DFDTALK(Malonyl)HYDK_] yielded a collision cross section [1] of 405.79 ± 0.59 Å².

Work on DFDTALKHYDK [_DFDTALK(Methyl (K))HYDK_] yielded a collision cross section [3] of 393.99 Å² and a collision cross section [4] of 458.02 ± 4 Å².

For DFDTALKHYDK [_DFDTALK(Propionyl)HYDK_], the collision cross section [5] was 403.21 Å².

For DFDTALKHYDK [_DFDTALK(Succinyl)HYDK_], the collision cross section [6] was 404.59 ± 1.1 Å² and the collision cross section [7] was 465.49 ± 2.9 Å².

“DFDTALKHYDK [_DFDTALK(hydroxyisobutyryl)HYDK_]” showed a collision cross section [10] of 409.01 ± 0.39 Å² and a collision cross section [11] of 468.72 ± 1.9 Å².
